Consider six compounds from patent publication US20070196275A1, “Diagnostic Imaging Compositions, Their Methods Of Synthesis And Use” (priority 2001, published 2007).

By clearance is commonly meant a measure of how efficiently the substance is removed, as volume per time. Read a high clearance as a high capacity for elimination.

Details of data set [1]: species or system Nude mice. To be noted: mouse, in vivo; for clearance / t1/2, α / t1/2, β / terminal half-life (rounded figures): iv. The protocol: At predetermined intervals, blood samples (30-60 μl) were taken from the medial saphenous vein by puncture, and the radioactivity of each sample was measured with a Cobra Autogamma counter (Packard, Downers Grove, Ill.). The pharmacokinetic parameters for each radiotracer were calculated from mean blood concentration values observed over the study period using WinNonlin™ 2.1 software (Scientific Consulting, Inc., Lexington, Ky.). The mice were killed at the end of the study, and the liver, muscle, kidneys, and spleen were removed, weighed, and measured for radioactivity. The data are expressed as percentage of injected dose per gram of tissue. In FIG. 15A, the y-axis represents % Injected dose/ml blood; the x-axis represents time in hours. Squares represent Annexin V. Diamonds represent PEG-Annexin V. In FIG. 15B, the y-axis represents % Injected dose/g tissue. From left to right, the paired bars in FIG. 15B represent blood, liver, kidney, spleen, and muscle tissues, respectively. The bars on the left of the paired bars represent Annexin V. The bars on the right of the paired bars represent PEG-Annexin V.

The test system of data set [2] is Ara-C treated HL60 and Raji cells (apoptotic cells). The data set can be described thus: Cell binding assay of radiolabeled PEGylated annexin V. On the set-up: species or system human. To be noted: 1.0 μM Ara-C. The method, then:
The 1:30 and 1:60 preps of PEGylated annexin V were tested for their ability to bind to cells that had been treated with Ara-C to induce apoptosis. Human leukemia HL60 or human B-cell lymphoma Raji cells (1×10^6 cells/ml each) were treated with Ara-C at 1.0 μM for 6 hours or 22 hours to induce apoptosis. The cells were then washed twice with PBS and re-suspended in binding buffer (10 mM HEPES/NaOH, pH 7.5 containing 140 mM NaCl and 2.5 mM CaCl2) at a concentration of 1×10^6 cells/ml. Five μl annexin V-FITC solution (50 μg/ml in 50 mM Tris-HCl, pH 7.5, containing 100 mM NaCl) was added into the control cells as well as treated cells. The mixtures were incubated at room temperature for 10 minutes. Apoptotic cells stained with annexin V-FITC (Sigma) were quantified with a Labsystems Fluoroskan FL flow cytometer (Helsinki, Finland) (FIG. 13). […] The cells were washed twice with PBS, centrifuged and counted for cell-associated radioactivity (FIG. 14). FIG. 13 is a bar graph showing apoptotic index after treatment with 1.0 uM Ara-C as quantified by flow cytometry analysis using annexin V-FITC as fluorescent probe. In FIG. 13, the y-axis represents the percent apoptotic cells; the x-axis represents the time after treatment in hours. […] In FIG. 14, the y-axis represents radioactivity in cpm; the x-axis represents time after treatment in hours. […]

In data set [3] the test system is MDA-MB-468 tumors. The data set can be described thus: Autoradiography and TUNEL assay. The data set is classed as in vivo, mice. To be noted: 4 days after treatment, intratumoral distribution of ^111In-DTPA-PEG-AV.
Source text: Two tumors removed from each group of mice at the end of the gamma imaging session were rapidly frozen, processed, and 8-μm sections were made. The sliced sections were fixed in cold acetone, dried, and exposed to a multipurpose storage phosphor screen for 10 days. A Cyclone™ Storage Phosphor System (Packard Instrument Company, Inc., Meriden, Conn.) was used to obtain autoradiographic images. The radioactivity at selected field of view is expressed as digital light unit per millimeter square (DLU/mm^2).
DNA fragmentation was analyzed by terminal deoxynucleotidyl transferase (TdT)-uridine nick end labeling (TUNEL) using a commercial kit according to the manufacturer provided protocol (Promega, Madison, Wis.). Frozen tissue sections (8 μm) were fixed with 4% paraformaldehyde (methanol-free) for 10 minutes at room temperature. The sections were washed with PBS two times (5 minutes each) and incubated with equilibration buffer (Promega) for 10 minutes at room temperature. […] Images were recorded using an Olympus fluorescence microscope (Olympus, Melville, N.Y.) with 520 nm filter and 20× object lens. Apoptotic cells per slide view were quantified by AAB colony counting software (Advanced American Biotechnology, Fullerton, Calif.) and expressed as number per field of view (0.016 mm^2).
The test system of data set [4] is HL60 cells and Raji cells. The data set can be described thus: Flow cytometry of apoptotic cells stained with annexin V-FITC. It counts as cell-based, human. To be noted: 1.0 μM, 22 hours, annexin V-FITC staining. The protocol: The 1:30 and 1:60 preps of PEGylated annexin V were tested for their ability to bind to cells that had been treated with Ara-C to induce apoptosis. Human leukemia HL60 or human B-cell lymphoma Raji cells (1×10^6 cells/ml each) were treated with Ara-C at 1.0 μM for 6 hours or 22 hours to induce apoptosis. The cells were then washed twice with PBS and re-suspended in binding buffer (10 mM HEPES/NaOH, pH 7.5 containing 140 mM NaCl and 2.5 mM CaCl2) at a concentration of 1×10^6 cells/ml. Five μl annexin V-FITC solution (50 μg/ml in 50 mM Tris-HCl, pH 7.5, containing 100 mM NaCl) was added into the control cells as well as treated cells. The mixtures were incubated at room temperature for 10 minutes. Apoptotic cells stained with annexin V-FITC (Sigma) were quantified with a Labsystems Fluoroskan FL flow cytometer (Helsinki, Finland) (FIG. 13). […] The cells were washed twice with PBS, centrifuged and counted for cell-associated radioactivity (FIG. 14).
FIG. 13 is a bar graph showing apoptotic index after treatment with 1.0 uM Ara-C as quantified by flow cytometry analysis using annexin V-FITC as fluorescent probe. In FIG. 13, the y-axis represents the percent apoptotic cells; the x-axis represents the time after treatment in hours. […] In FIG. 14, the y-axis represents radioactivity in cpm; the x-axis represents time after treatment in hours. […]
On the technique in general: In flow cytometry, cells or beads pass a laser one at a time.

The test system of data set [5] is MDA-MB-468 tumors. Further details: species or system mice. To be noted: mouse, in vivo. The method, then: The following materials and methods were used in this example. Human breast adenocarcinoma MDA-MB-468 cells were maintained in 1:1(v/v) Dulbecco's modified Eagle's medium (DMEM)/Ham's F-12 mixture supplemented with 10% fetal bovine serum (FBS) (Gibco Laboratories, Grand Island, N.Y.) at 37 C in 5% CO2/95% air. […] Mice in Group I were not treated and were used as a control. In Group II, mice were injected intravenous with PG-paclitaxel (PG-TXL) at an equivalent paclitaxel (Taxol, TXL) dose of 100 mg/kg 1 day before the injection of radiotracer. PG-TXL is a water-soluble polymeric conjugate of paclitaxel and poly(l-glutamic acid). […] The conjugate has the same mechanism of action as paclitaxel. […] Radioactivity of each sample was measured with the Cobra Auto-gamma Counter (Packard, Downers Grove, Ill.). The percentage of the injected dose per gram of tissue (% ID/g tissue) was calculated for each sample. In a separate experiment, tumors were histologically analyzed to quantify apoptotic index induced by drug treatments. […] Apoptosis index was scored in coded slides by microscopic examination at 400× magnification. Five fields of nonnecrotic areas were randomly selected in each histological specimen, and in each field the number of apoptotic nuclei were recorded as numbers per 100 nuclei and were expressed as a percentage. […]

As for “^111In-DTPA-annexin V: ^111In-labeled annexin V with DTPA, without PEG; comparison [reference compound]”, in data set [1], the clearance worked out at 0.4 mL/h; the “t1/2, α” value was determined as 0.07 h; the “t1/2, β” value came to 17.4 h; the “terminal half-life (rounded figures)” value turned out to be 17 h.

Turning to “1:60 prep of ^111In-DTPA-PEG-AV: ^111In-labeled annexin V PEGylated with SCN-PEG-DTPA at molar ratio 1:60”, the “binding to Ara-C treated cells” value in data set [2] (Raji cells) was “did not show binding to the Ara-C treated cells”.

“1:15 prep ^111In-DTPA-PEG-annexin V: ^111In-labeled annexin V PEGylated with SCN-PEG-DTPA, 1:15 prep”: in data set [1], the “percentage of injected dose per gram of tissue, blood” value was 0.36±0.05%; the “percentage of injected dose per gram of tissue, kidney” value is given as 22.35±4.74%; the “percentage of injected dose per gram of tissue, liver” value is given as 8.37±2.76%; the “percentage of injected dose per gram of tissue, muscle” value came out at 0.75±0.04%. Also, in data set [1], the “percentage of injected dose per gram of tissue, spleen” value stood at 6.75±0.44%; the clearance worked out at 0.01 mL/h; the “t1/2, α” value is 4.90 h; the “t1/2, β” value stood at 26.3 h. Besides, the “terminal half-life (rounded figures)” value in data set [1] is 26 h.

“poly (L-glutamic acid)-paclitaxel conjugate [PG-TXL]”: the “apoptotic response of the tumor to treatment” value in data set [3] was “increased apoptosis”.

Take `Nc1ccn([C@@H]2O[C@H](CO)[C@@H](O)[C@@H]2O)c(=O)n1` [Ara-C]: in data set [4], the “increase of percentage of apoptotic cells” value is 4-10 fold.

Regarding “1:30 prep of ^111In-DTPA-PEG-AV: ^111In-labeled annexin V PEGylated with SCN-PEG-DTPA at molar ratio 1:30”, the “change of tumor uptake 1 day after PG-TXL” value in data set [5] is recorded as “slight but non-significant increase of the radiotracer in the tumor”. Moreover, the “increase of cell associated radioactivity after treatment with Ara-C” value in data set [2] (HL60 and Raji cells) is recorded as 4-6 fold.
